Data as given in publication PMC9755527.

What was measured:
CccR = CccR (Yersinia pseudotuberculosis, UniProt Q666X7 1-380); experiment: ITC; stoichiometry 1:2; details: protein: recombinant; tags: His6 (pET28a) or GST (pGEX6p-1); His6 stated for EMSA; chain copies: 2
CccR201-380 = CccR201-380 (Yersinia pseudotuberculosis, UniProt Q666X7 201-380); experiment: ITC; details: protein: recombinant; tags: His6 (EMSA)
CccR1-220 = CccR1-220 (Yersinia pseudotuberculosis, UniProt Q666X7 1-220); experiment: ITC; details: protein: recombinant; tags: His6 (pET28a) or GST (pGEX6p-1)

B1: PcccR 100-bp ITC probe (dsDNA)
DNA 1: ATATTCAATCGGATGTATCGCCACGGATTTTTGAGATAATCATAAAGTTACTTTTGAGATAATCTACAAATGATAATCTGTTAACATAATGGCTATAAAG
DNA 2: CTTTATAGCCATTATGTTAACAGATTATCATTTGTAGATTATCTCAAAAGTAACTTTATGATTATCTCAAAAATCCGTGGCGATACATCCGATTGAATAT
Kd (CccR): 2.56 ± 0.12 µM
Kd (CccR201-380): 6.13 ± 0.11 µM
Kd (CccR1-220): 1530 ± 130 µM
